Molecular target: T1, staphylocoagulase SC(1-246), unlabeled (UniProt P17855 27-272)
T1 chain: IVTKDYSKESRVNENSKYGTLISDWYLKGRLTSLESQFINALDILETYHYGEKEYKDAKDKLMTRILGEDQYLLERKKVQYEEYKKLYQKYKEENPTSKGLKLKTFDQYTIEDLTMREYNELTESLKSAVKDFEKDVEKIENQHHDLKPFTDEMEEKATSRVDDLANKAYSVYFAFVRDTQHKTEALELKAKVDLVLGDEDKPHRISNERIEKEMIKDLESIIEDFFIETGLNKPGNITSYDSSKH
Assay: fluorescence competitive titration; competitor

B1: GMA-2105 murine monoclonal antibody (antibody, V domains shown)
VH: EVKLEESGGGLVQPGGSMKLSCAASGFTFSDAWMDWVRQSPEKGLEWVAEIRTKANNHATYYAESVKGRFTISRDDSKSSVYLQMNSLRAEDTGIYYCTNVYYGNNDVKDYWGQGTSVTVSP
VL: DIVMTQSQKFMSTSVGDRVSVTCKASQNVDIYVAWYQQKPGQSPKALIYSASYRFSGVPDRFTGSGSGTDFTLSISNVQSEDLAEYFCQQYNNYPYTFGGGTKLEIKR
  Kd: 710 pM

B2: Chimeric GMA-2105 (antibody, V domains shown)
VH: B1 VH
VL: B1 VL
  Kd: 750 pM

Reference: patent publication US10906989 (dated 2021)
